Molecular target: human MASP-2 (human, UniProt O00187 16-686)
Assay: cell-based or functional assay

human MASP-2, sequence (O00187 16-686): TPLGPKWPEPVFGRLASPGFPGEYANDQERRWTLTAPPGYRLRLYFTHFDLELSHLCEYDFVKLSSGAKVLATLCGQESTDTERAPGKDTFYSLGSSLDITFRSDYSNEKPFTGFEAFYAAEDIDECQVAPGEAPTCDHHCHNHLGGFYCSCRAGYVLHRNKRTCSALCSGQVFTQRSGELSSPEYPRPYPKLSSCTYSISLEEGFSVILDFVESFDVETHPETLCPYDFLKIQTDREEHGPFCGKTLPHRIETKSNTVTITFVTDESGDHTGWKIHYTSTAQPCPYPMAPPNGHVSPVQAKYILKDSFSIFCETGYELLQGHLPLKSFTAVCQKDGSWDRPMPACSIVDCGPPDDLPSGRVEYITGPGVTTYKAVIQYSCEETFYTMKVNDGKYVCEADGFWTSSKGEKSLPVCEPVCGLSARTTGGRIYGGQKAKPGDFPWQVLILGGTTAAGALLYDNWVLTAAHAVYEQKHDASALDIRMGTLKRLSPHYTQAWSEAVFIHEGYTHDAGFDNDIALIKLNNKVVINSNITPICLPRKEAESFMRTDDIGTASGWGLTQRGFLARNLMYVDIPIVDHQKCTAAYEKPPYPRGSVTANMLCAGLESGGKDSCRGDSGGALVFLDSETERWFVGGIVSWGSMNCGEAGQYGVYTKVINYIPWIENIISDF

B1: 17D20m_d3521N11 (scFv, V domains shown)
VH: QVTLKESGPVLVKPTETLTLTCTVSGFSLSRGKMGVSWIRQPPGKALEWLAHIFSSDEKSYRTSLKSRLTISKDTSKNQVVLTMTNMDPVDTATYYCARIRRGGIDYWGQGTLVTVSS
VL: SYELIQPPSVSVAPGQTATITCAGDNLGKKRVHWYQQRPGQAPVLVIYDDSDRPSGIPDRFSASNSGNTATLTITRGEAGDEADYYCQVWDIATDHVVFGGGTKLTVL
1% human serum C3 assay (IC50 nM): 26 nM | 90% human serum C3 assay (IC50 nM): > 1000 nM | 90% human serum C4 assay (IC50 nM): 140 nM

Reference: patent US20210077621A1 (published 2021)
